In patent US20230203098A1 (published 2023):
Each block holds one binder with its values, some of them ahead of it. *1 amine or outer side, *2 acyl side, *3 side chain or, on linkers, in order; H or OH if unused. Bridges are numbered along the chain shown (N, C = ends). Primed or numbered codes have the meaning given here. Where no end group is shown, it is not given here. [ ]: non-standard residue; d: D form. Tyr(Me) = COc1ccc(C[C@H](N[*:1])C(=O)[*:2])cc1; NMePhe(3-Cl) = CN[C@@H](Cc1cccc(Cl)c1)C(=O)O; NMeW = CN[C@@H](Cc1c[nH]c2ccccc12)C(=O)O; NMeY = CN[C@@H](Cc1ccc(O)cc1)C(=O)O; PEG11′ = not defined here; Aib = CC(C)(N)C(=O)O

How the values were obtained:
[1] = molecular target: T1, human transferrin receptor (hTfR) (human, UniProt P02786 89-760, limits assumed); experiment: SPR, hTfR immobilised
T1 construct: hTfR solution immobilised on NTA chip (Ni capture plus EDC/NHS); also called human TfR
Procedure: (§1) An NTA sensor chip (Global Life Sciences Technologies Japan) was inserted in a Biacore T200 (Global Life Sciences Technologies Japan) and a prime operation was performed 3 times with a running buffer: 10 mM HEPES pH 8.0 (Nacalai Tesque), 150 mM NaCl (Nacalai Tesque), 0.05% Tween 20 (Nacalai Tesque), 0.1% BSA (Sigma-Aldrich), 1.0% DMSO (FUJIFILM Wako Pure Chemical) to create an Equilibration state at a flow rate of 30 µL/min. After reacting with 350 mM EDTA solution for 60 seconds at a flow rate of 10 µL/min then reacting with 0.5 mM NiCl₂ solution (Kishida Chemical) for 60 seconds at a flow rate of 10 µL/min, the NTA sensor chip was washed with 3 mM EDTA solution (Nacalai Tesque) for 60 seconds at a flow rate of 10 µL/min. After mixing 50 µL each of 60 mM EDC solution (Global Life Sciences Technologies Japan) and 650 mM NHS solution (Global Life Sciences Technologies Japan), the mixture was reacted for 420 seconds at a flow rate of 10 µL/min. By diluting with the running buffer, 150 µL of 3.2 µM hTfR solution was prepared and used for reaction for 600 seconds at a flow rate of 10 µL/min, thereby immobilizing hTfR on the NTA sensor chip. […] An obtained sensorgram was subjected to curve fitting using the least-squares method, and the binding of the peptide to hTfR was evaluated by obtaining KD values.

[2] = molecular target: T1, human transferrin receptor (hTfR); experiment: SPR according to Example 2
Procedure: (§2) For each of the various synthesized peptides, the intermolecular interaction of the peptide with the transferrin receptor (hTfR) was tested by surface plasmon resonance (SPR) according to the following method. The specific test method is as follows.
as §1, with “µL/min.” for “µL/min. By diluting with the running buffer, 150 µL of 3.2 µM hTfR solution was prepared and used for reaction for 600 seconds at a flow rate of 10 µL/min, thereby immobilizing hTfR on the NTA sensor chip.”

[3] = molecular target: T1, human transferrin receptor (hTfR); experiment: SPR in accordance with Example 2
Procedure: as §2
as §1, with “µL/min.” for “µL/min. By diluting with the running buffer, 150 µL of 3.2 µM hTfR solution was prepared and used for reaction for 600 seconds at a flow rate of 10 µL/min, thereby immobilizing hTfR on the NTA sensor chip.”

T1 sequence (P02786 89-760 limits assumed): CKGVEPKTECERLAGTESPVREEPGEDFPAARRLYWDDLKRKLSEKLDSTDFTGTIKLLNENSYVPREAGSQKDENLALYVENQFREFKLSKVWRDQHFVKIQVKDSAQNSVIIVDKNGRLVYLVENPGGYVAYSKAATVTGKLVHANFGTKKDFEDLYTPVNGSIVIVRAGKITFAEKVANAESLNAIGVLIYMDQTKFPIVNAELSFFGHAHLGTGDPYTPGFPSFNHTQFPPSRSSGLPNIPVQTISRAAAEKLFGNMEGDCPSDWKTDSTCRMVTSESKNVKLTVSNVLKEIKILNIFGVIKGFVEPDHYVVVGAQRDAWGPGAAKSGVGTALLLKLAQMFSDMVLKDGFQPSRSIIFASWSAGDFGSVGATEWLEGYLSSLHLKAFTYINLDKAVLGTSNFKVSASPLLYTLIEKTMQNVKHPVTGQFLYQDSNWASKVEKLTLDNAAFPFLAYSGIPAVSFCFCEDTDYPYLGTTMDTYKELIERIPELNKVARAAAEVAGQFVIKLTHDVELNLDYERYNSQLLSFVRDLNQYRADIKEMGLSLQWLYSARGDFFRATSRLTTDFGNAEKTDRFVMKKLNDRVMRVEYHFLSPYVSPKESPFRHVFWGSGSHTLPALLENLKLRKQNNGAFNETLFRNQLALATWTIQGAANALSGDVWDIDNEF

- binding result [1]: no binding
B1: Flip_894_PEG4_KFITC (peptide)
peptide: {CH2CO}-A[NMeY]F[dR][Aib]IY[Tyr(Me)]YN[NMeW]V[NMePhe(3-Cl)]VC
modifications: thioether N-15; not fully specified (C-terminus); also: PEG4c not defined
notes: also called Flip894_variant61_PEG4dk5FAM; Flip894_variant61_PEG4dk5FA

- Kd [2]: 1.09 nM
B2: hTfR_000894_PEG11_(VivoTag) (peptide)
peptide: {CH2CO}-AVFVWNYYIIRRY[NMeY]C
modifications: thioether N-15; not fully specified (C-terminus); also: linker PEG11 in text, PEG12 in table
notes: also called hTfRNo.894-vivotag750; hTfRNo.894-PEG11-Vivotag750

- Kd [3]: 0.28 nM
Binder: AVFVWNYYIIRRYYC (14 MeTyr; C-term PEG11-K(FITC); cyclic 1-15 thioether) [JCR_hTfR_000894_PEG11_K(FITC)]

- binding result [2]: no binding
B3: hTfRNo.894FLIP-vivotag750 (peptide)
peptide: {CH2CO}-A[NMeY]YRRIIYYNWVFVC-{PEG11′-VivoTag750}
modifications: thioether N-15 (inferred); not fully specified; printed as ClAc-Ala-MeTyr-Tyr-Arg-Arg-Ile-Ile-Tyr-Tyr-Asn-Trp-Val-Phe-Val-Cys
notes: also called hTfRNo.894FLIP-PEG11-Vivotag750

- binding result [1]: no binding
Binder: {CH2CO}-A[NMeY]YRRIIYYNWVFVC-{PEG11′-K(FITC)} (thioether N-15) [FLIP_000894_PEG11_K_FITC]
